In US20230348629A1 (BEIJING MABWORKS BIOTECH, published 2023):

T1: human TIGIT on HEK293A/human TIGIT cells (human, UniProt Q495A1 22-244)
T1 construct: also called cell surface human TIGIT; human TIGIT-expressing HEK293A cells
T1 sequence: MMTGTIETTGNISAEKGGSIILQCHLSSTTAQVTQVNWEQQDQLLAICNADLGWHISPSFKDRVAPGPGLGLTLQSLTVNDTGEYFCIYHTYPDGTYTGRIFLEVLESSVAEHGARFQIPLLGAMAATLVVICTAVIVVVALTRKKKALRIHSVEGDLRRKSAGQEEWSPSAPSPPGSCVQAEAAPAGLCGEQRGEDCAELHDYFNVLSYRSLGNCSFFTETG

T2: human VEGF-C-his molecules (Cat #:VEC-H4225, Acrobiosystems) (human, UniProt P49767 103-227, limits assumed)
T2 construct: Bought protein; not shown: his tag
T2 sequence (looked up): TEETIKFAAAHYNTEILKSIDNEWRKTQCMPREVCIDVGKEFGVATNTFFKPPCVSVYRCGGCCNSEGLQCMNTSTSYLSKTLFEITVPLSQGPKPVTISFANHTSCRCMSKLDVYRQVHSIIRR

T3: TIGIT-mFc molecules (Cat #: 10917-H38H, Sino Biological) (UniProt Q495A1 22-141)
T3 construct: not shown: mFc (mouse Fc)
T3 sequence (looked up): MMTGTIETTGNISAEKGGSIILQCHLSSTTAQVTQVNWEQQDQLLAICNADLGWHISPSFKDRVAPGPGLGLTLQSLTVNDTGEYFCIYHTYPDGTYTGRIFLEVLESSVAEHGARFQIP

T4: human TIGIT-his protein (Cat #:10917-H08H, Sino Biological) (human, UniProt Q495A1 22-141)
T4 construct: Bought soluble protein; also called TIGIT molecules; not shown: his tag
T4 sequence: T3 sequence (looked up)

B1: MBS310-6 (bispecific antibody, human IgG1, kappa)
heavy 1: not shown
heavy 2: not shown
light 1: not shown
light 2: EIVLTQSPGTLSLSPGERATMTCRASSSISSTYLHWYQQKPGASPKLLIYNTQNLASGVPARFSGSGSGTSYTLTISRLEPEDFAVYYCQQFGGYPLITFGAGTKLELKRTVAAPSVFIFPPSDEQLKSGTASVVCLLNNFYPREAKVQWKVDNALQSGNSQESVTEQDSKDSTYSLSSTLTLSKADYEKHKVYACEVTHQGLSSPVTKSFNRGEC
notes: two half antibodies (knob and hole) expressed in HEK-293F cells and assembled in vitro; also called asymmetrical anti-VEGF/TIGIT bispecific antibody; anti-TIGIT/VEGF bispecific antibody
B2: 70E11VH2VL4 (antibody, human IgG1, kappa, V domains shown)
VH: QVQLVQSGAEVKKPGASVKVSCKASGYTFTSYNVHWVRQAPGQGLEWMGTIYPGNLATSYNQKFKGRVTLTADTSTSTVYMELSSLRSEDTAVYYCARSGTMDYWGQGTTVTVSS
VL: EIVLTQSPGTLSLSPGERATMTCRASSSISSTYLHWYQQKPGASPKLLIYNTQNLASGVPARFSGSGSGTSYTLTISRLEPEDFAVYYCQQFGGYPLITFGAGTKLELKR
notes: Humanized anti-TIGIT antibody, human IgG1 and kappa constant regions; also called anti-TIGIT antibody 70E11VH2VL4; monospecific anti-TIGIT antibody
B3: MBS310-4 (bispecific antibody, human IgG1, kappa)
heavy: not shown
light: B1 light 2
notes: also called symmetrical anti-VEGF/TIGIT bispecific antibody
B4: bevacizumab (antibody, V domains shown)
VH: EVQLVESGGGLVQPGGSLRLSCAASGYTFTNYGMNWVRQAPGKGLEWVGWINTYTGEPTYAADFKRRFTFSLDTSKSTAYLQMNSLRAEDTAVYYCAKYPHYYGSSHWYFDVWGQGTLVTVSS
VL: DIQMTQSPSSLSASVGDRVTITCSASQDISNYLNWYQQKPGKAPKVLIYFTSSLHSGVPSRFSGSGSGTDFTLTISSLQPEDFATYYCQQYSTVPWTFGQGTKVEIKR
notes: also called Avastin bevacizumab

Experiments:
[1] = biological target: T1, human TIGIT on HEK293A/human TIGIT cells; experiment: FACS on HEK293A/human TIGIT cells, antibody titrated, no free VEGF-A
Procedure: (§1) Briefly, 10⁵ HEK293A cells in 100 μl cell culture medium were seeded onto a 96-well plate, which was later added with 50 μl serially diluted bispecific antibodies of the disclosure and 50 μl free human VEGF-A molecules at the final concentration of 0 ng/ml, 50 ng/ml or 50 μg/ml (Cat #:11066-HNAN, Sino Biological, CN). After incubation at 4° C. for 1 h, the plate was washed with PBS for three times, and added with APC-goat-anti-mouse IgG (1:500, Cat #: 405308, BioLegend, USA). After incubation at 4° C. for 1 h, the plate was washed with PBS for three times, and measured for fluorescence using a cytometry (BD).

[2] = biological target: T1, human TIGIT on HEK293A/human TIGIT cells; experiment: as above; remark: listed apart in the source
Procedure: as §1

[3] = biological target: T1, human TIGIT on HEK293A/human TIGIT cells; experiment: FACS on HEK293A/human TIGIT cells, antibody titrated in the presence of 50 ug/ml free human VEGF-A
Procedure: as §1

[4] = biological target: T2, human VEGF-C-his molecules (Cat …); experiment: ELISA, plate coated with human VEGF-C-his, antibody titrated (axis labelled MFI)
Procedure: (§2) Briefly, an ELISA plate was coated with 100 μl 500 ng/ml human VEGF-A molecules (Cat #:11066-HNAN, Sino Biological, CN), mouse VEGF-A molecules (Cat #:50159-MNAB, Sino Biological, CN), human VEGF-B-his molecules (Cat #:VE6-H5225, Acrobiosystems Co., CN) and human VEGF-C-his molecules (Cat #:VEC-H4225, Acrobiosystems Co., CN) respectively overnight at 4° C. […] The ELISA plate was added with freshly prepared Ultra-TMB (Cat #:555214, BD, USA), and left still for 5 min for color development. The absorbance was read at 450 nm using SpectraMax® i3X microplate reader.

[5] = biological target: T1, human TIGIT on HEK293A/human TIGIT cells; experiment: FACS on HEK293A/human TIGIT cells, antibody titrated, MFI
Procedure: (§3) Briefly, 10⁵ HEK293A cells in 100 μl cell culture medium were seeded onto a 96-well plate, which was later added with 50 μl serially diluted bispecific antibodies of the disclosure. After incubation at 4° C. for 1 h, the plate was washed with PBS for three times, added with APC-goat-anti-mouse IgG (1:500, Cat #: 405308, BioLegend, USA). After incubation at 4° C. for 1 h, the plate was washed with PBS for three times, and measured for fluorescence using a cytometry (BD).

[6] = biological target: T1, human TIGIT on HEK293A/human TIGIT cells; experiment: cell-based or functional assay
[7] = biological target: T5, human VEGF-A molecules (Cat #:11066-HNAN, Sino Biological) (human, UniProt P15692-4 27-191); experiment: SPR (BIAcore 8K), human VEGF-A coupled to the chip, antibody injected
T5 construct: Bought protein; also called human/monkey VEGF; VEGF molecules
T5 sequence (P15692 other isoform, or with tags, fused parts or gaps limits assumed): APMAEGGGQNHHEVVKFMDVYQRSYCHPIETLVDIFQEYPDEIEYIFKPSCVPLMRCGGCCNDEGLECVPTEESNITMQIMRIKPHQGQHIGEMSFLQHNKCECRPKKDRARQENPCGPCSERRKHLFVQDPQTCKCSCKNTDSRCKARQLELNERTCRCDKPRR
Text: (§4) Using BIAcore™ 8K instrument (GE Life Sciences, US), the binding affinity of the bispecific molecules of the disclosure to human TIGIT and VEGF was quantitatively measured. Briefly, 100-200 response units (RU) of human TIGIT-his protein (Cat #:10917-H08H, Sino Biological, CN) or human VEGF-A (Cat #:11066-HNAN, Sino Biological, CN) were coupled to CMS biosensor chips (Cat #:BR-1005-30, GE Life Sciences, US). The un-reacted groups were then blocked with 1M ethanolamine Serially diluted antibodies at concentrations ranging from 0.3 μM to 10 μM were injected into the SPR running buffer (HBS-EP buffer, pH7.4, Cat #:BR-1006-69, GE Life Sciences, US) at 30 μL/min. The binding affinity was calculated with the RUs of blank controls subtracted, and the association rate (kₐ) and dissociation rate (kd) were determined using the one-to-one Langmuir binding model (BIA Evaluation Software, GE Life Sciences, US). The equilibrium dissociation constant KD was calculated as the kd/kₐ ratio.

[8] = biological target: T3, TIGIT-mFc molecules (Cat #: 10917-H38H, …); experiment: FACS blocking assay: antibody titrated and premixed with 5 ug/ml TIGIT-mFc, binding of TIGIT-mFc to human PVR on A549/human PVR cells
Procedure: After incubation at 4° C. for 1 h, the plate was washed with PBS for three times, and then added with PE-goat-anti-mouse IgG (1:500, Cat #:31861, Thermofisher, USA). After incubation at 4° C. for 1 h, the plate was washed with PBS for three times, and measured for fluorescence using a cytometry (BD).

[9] = biological target: T1, human TIGIT on HEK293A/human TIGIT cells; experiment: FACS on HEK293A/human TIGIT cells, antibody titrated in the presence of 50 ng/ml free human VEGF-A
Procedure: as §1

[10] = biological target: T6, monkey TIGIT on HEK293A/monkey TIGIT cells (monkey); experiment: FACS on HEK293A/monkey TIGIT cells, antibody titrated, MFI
T6 construct: also called cell surface monkey TIGIT
T6 sequence (chain, as listed by the source limits assumed): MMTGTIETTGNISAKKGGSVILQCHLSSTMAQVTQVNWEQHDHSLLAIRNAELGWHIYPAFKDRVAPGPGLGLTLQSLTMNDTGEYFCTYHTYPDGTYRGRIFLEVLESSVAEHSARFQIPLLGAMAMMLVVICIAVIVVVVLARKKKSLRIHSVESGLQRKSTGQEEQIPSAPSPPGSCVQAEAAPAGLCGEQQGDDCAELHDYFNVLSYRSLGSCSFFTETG
Procedure: as §3

[11] = biological target: T5, human VEGF-A molecules (Cat …); experiment: ELISA, plate coated with human VEGF-A, antibody titrated, OD450
Procedure: as §2

[12] = biological target: T4, human TIGIT-his protein (Cat …); experiment: SPR (BIAcore 8K), human TIGIT-his coupled to the chip, antibody injected
Text: as §4

| Binder | EC50 (read off the curve) [1] [nM] | EC50 (read off the curve) [2] [nM] | EC50 (read off the curve) [3] [nM] | binding result [4] | EC50 (read off the curve) [5] [nM] | EC50, NK92 (NK92MI-CD16a) cell-mediated ADCC, LDH release [6] [nM] | EC50, PBMC-mediated ADCC, death rate of GFP+ cells by FACS [6] [nM] | Kd [7] [nM] | IC50 (read off the curve) [8] [nM] | EC50 (read off the curve) [9] [nM] | EC50 (read off the curve) [10] [nM] | EC50 (read off the curve) [11] [nM] | Kd [12] [nM] | binding result [11] |
| --- | --- | --- | --- | --- | --- | --- | --- | --- | --- | --- | --- | --- | --- | --- |
| B1 | ~0.9 | ~1 | ~0.8 | no binding (tested: about 100 nM (LOG.Con about 2)) | ~0.8 | 0.268 | 0.183 | 0.166 | ~4 | ~1 | ~1 | ~0.6 | 12.8 |  |
| B2 |  |  |  |  | ~0.4 | 0.142 | 0.162 |  | ~2 |  | ~0.2 |  | 8.05 |  |
| B3 |  |  |  |  |  |  |  |  |  |  |  |  |  | binds |
| B4 |  |  |  | no binding (tested: about 100 nM (LOG.Con about 2)) |  |  |  |  |  |  |  |  |  |  |
